Measurements: paper PMC5480393 (Cell, 2017)
Like-named read-outs stand apart in the source and are kept apart here.

B1: VR3 (red abalone VERL repeat 3 without the interdomain linker) (domain or fragment)
chain: DWDVYCSQDESIPAKFISRLVTSKDQALEKTEINCSNGLVPITQEFGINMMLIQYTRNELLDSPGMCVFWGPYSVPKNDTVVLYTVTARLKWSEGPPTNLSIQCYMPKSPVAPK
B2: mMBP-VR3 (mammalianized maltose-binding protein fusion of VERL repeat 3) (domain or fragment)
chain: DWDVYCSQDESIPAKFISRLVTSKDQALEKTEINCSNGLVPITQEFGINMMLIQYTRNELLDSPGMCVFWGPYSVPKNDTVVLYTVTARLKWSEGPPTNLSIQCYMPKSPVAPK

What was measured:
[1] = molecular target: the molecule itself; experiment: crystal structure
[2] = molecular target: the molecule itself; experiment: crystal structure; remark: listed apart in the source

Protein | binding result [1] | binding result [2]
B1 | binds | –
B2 | – | binds
